US20220411483A1 (Chugai, published 2022)
Changes are numbered by the printed parent chain.

T1: FcγRIIb extracellular domain, His tag (human, UniProt P31994 43-217)
T1 construct: extracellular domain; also called FcgRIIb
T1 sequence (looked up): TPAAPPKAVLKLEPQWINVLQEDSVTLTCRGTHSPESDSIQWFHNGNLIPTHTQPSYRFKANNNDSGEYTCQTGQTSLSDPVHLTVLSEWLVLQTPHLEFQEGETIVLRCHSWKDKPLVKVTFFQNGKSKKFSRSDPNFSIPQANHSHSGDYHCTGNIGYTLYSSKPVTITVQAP

T2: FcγRIIa R type extracellular domain, His tag (human, UniProt P12318 34-217)
T2 construct: extracellular domain; also called FcgRIIaR
T2 sequence (looked up): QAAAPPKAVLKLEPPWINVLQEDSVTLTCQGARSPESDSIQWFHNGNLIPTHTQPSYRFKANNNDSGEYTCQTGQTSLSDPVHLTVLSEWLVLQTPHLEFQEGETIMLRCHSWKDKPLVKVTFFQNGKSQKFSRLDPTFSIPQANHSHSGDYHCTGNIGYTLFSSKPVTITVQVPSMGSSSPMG

T3: FcgRIIaH (human, UniProt P12318 34-217)
T3 construct: extracellular domain; also called FcγRIIa H type
T3 sequence (looked up): T2 sequence (looked up) with R134H

T4: FcgRIIb (human, UniProt P31994 43-217)
T4 construct: extracellular domain; also called FcγRIIb
T4 sequence (looked up): T1 sequence (looked up)

T5: FcgRIIaR (human, UniProt P12318 34-217)
T5 construct: extracellular domain; also called FcγRIIa R type; FcγRIIa (R type)
T5 sequence (looked up): T2 sequence (looked up)

B1: IL6R-PD023/IL6R-L (antibody, human IgG1, kappa)
heavy: QVQLQESGPGLVKPSETLSLTCAVSGHSISHDHAWSWVRQPPGEGLEWIGFISYSGITNYNPSLQGRVTISRDNSKNTLYLQMNSLRAEDTAVYYCARSLARTTAMDYWGEGTLVTVSSASTKGPSVFPLAPSSKSTSGGTAALGCLVKDYFPEPVTVSWNSGALTSGVHTFPAVLQSSGLYSLSSVVTVPSSSLGTQTYICNVNHKPSNTKVDKKVEPKSCDKTHTCPPCPAPELLGGDSVFLFPPKPKDTLYISRTPEVTCVVVDVSHEDPEVKFNWYVDGVEVHNAKTKPREEQYNSTYRVVSVLTVLHQDWLNGKEYKCKVSNKALPHPIEKTISKAKGQPREPQVYTLPPSRDELTKNQVSLTCLVKGFYPSDIAVEWESNGQPENNYKTTPPVLDSDGSFFLYSKLTVDKSRWQQGNVFSCSVMHEALHYHYTQKSLSLSP
light: not shown
B2: IL6R-PD047/IL6R-L (antibody, human IgG1, kappa)
heavy: B1 heavy with L237F, H332A
light: not shown
B3: IL6R-PD024/IL6R-L (antibody, human IgG1, kappa)
heavy: B1 heavy with H332Y
light: not shown
B4: IL6R-PD089/IL6R-L (antibody, human IgG1, kappa)
heavy: B1 heavy with G239Q, H332A
light: not shown
B5: IL6R-P652/IL6R-L (antibody, human IgG1, kappa)
heavy: QVQLQESGPGLVKPSETLSLTCAVSGHSISHDHAWSWVRQPPGEGLEWIGFISYSGITNYNPSLQGRVTISRDNSKNTLYLQMNSLRAEDTAVYYCARSLARTTAMDYWGEGTLVTVSSASTKGPSVFPLAPSSKSTSGGTAALGCLVKDYFPEPVTVSWNSGALTSGVHTFPAVLQSSGLYSLSSVVTVPSSSLGTQTYICNVNHKPSNTKVDKKVEPKSCDKTHTCPPCPAPDLLGDDSVFLFPPKPKDTLMISRTPEVTCVVIDVYEEDGEVKFNWYVDGVEVHNAKTKPREEQDNSTYRVVSVLTVLHQDWLNGKEYKCKVSNKALPRPIEKTISKAKGQPREPQVYTLPPSRDELTKNQVSLTCLVKGFYPSDIAVEWESNGQPENNYKTTPMVLDSDGSFFLYSKLTVDKSRWQQGNVFSCSVMHEALHNHYTQKSLSLSP
light: not shown
B6: IL6R-P625/IL6R-L (antibody, human IgG1, kappa)
heavy: B5 heavy with L236K, D239G, Y269A, D298Y, R332A, M398P
light: not shown
B7: IL6R-P631/IL6R-L (antibody, human IgG1, kappa)
heavy: B5 heavy with D239G, D267N, Y269A, D298Y, R332A, M398P
light: not shown
B8: IL6R-P665/IL6R-L (antibody, human IgG1, kappa)
heavy: B5 heavy with Y269A, N299A
light: not shown
notes: also called IL6R-P665/1L6R-L
B9: IL6R-P629/IL6R-L (antibody, human IgG1, kappa)
heavy: B5 heavy with D239K, Y269A, D298Y, R332A, M398P
light: not shown
B10: IL6R-P636/IL6R-L (antibody, human IgG1, kappa)
heavy: B5 heavy with D239G, Y269R, D298Y, R332A, M398P
light: not shown
B11: IL6R-P626/IL6R-L (antibody, human IgG1, kappa)
heavy: B5 heavy with L236R, D239G, Y269A, D298Y, R332A, M398P
light: not shown

The binders below were run against T1, FcγRIIb extracellular domain, His tag (assay: SPR, bound amount per captured antibody).

Relative FcgRIIb-binding Activity	Binder
102 % of IL6R-F652/IL6R-L	B1
95.4 % of IL6R-F652/IL6R-L	B2
74.4 % of IL6R-F652/IL6R-L	B3
66 % of IL6R-F652/IL6R-L	B4

These binders were tested against T2, FcγRIIa R type extracellular domain, … (assay: SPR, bound amount per captured antibody).

Relative FcgRIIaR-binding Activity	Binder
73.9 % of IL6R-F652/IL6R-L	B1
89.9 % of IL6R-F652/IL6R-L	B2
60 % of IL6R-F652/IL6R-L	B3
65 % of IL6R-F652/IL6R-L	B4

Each binder was assayed against T3, FcgRIIaH (assay: SPR (Biacore)).

Relative FcgRIIaH-binding Activity	Binder
0.006 KD(G1d)/KD(variant)	B5
0.005 KD(G1d)/KD(variant)	B6
0.01 KD(G1d)/KD(variant)	B7
0.002 KD(G1d)/KD(variant)	B8
0.01 KD(G1d)/KD(variant)	B9
0.006 KD(G1d)/KD(variant)	B10
0.005 KD(G1d)/KD(variant)	B11

These binders were tested against T4, FcgRIIb (assay: SPR (Biacore)).

Relative FcgRIIb-binding Activity	Binder
4.18 KD(G1d)/KD(variant)	B5
3.06 KD(G1d)/KD(variant)	B6
1.16 KD(G1d)/KD(variant)	B7
1.6 KD(G1d)/KD(variant)	B8
7.97 KD(G1d)/KD(variant)	B9
1.77 KD(G1d)/KD(variant)	B10
1.9 KD(G1d)/KD(variant)	B11

The binders below were run against T6, FcgRIa (human, UniProt P12314 16-292) (assay: SPR (Biacore)).
T6 construct: also called FcγRIa; FcγRI
T6 sequence (P12314 16-292): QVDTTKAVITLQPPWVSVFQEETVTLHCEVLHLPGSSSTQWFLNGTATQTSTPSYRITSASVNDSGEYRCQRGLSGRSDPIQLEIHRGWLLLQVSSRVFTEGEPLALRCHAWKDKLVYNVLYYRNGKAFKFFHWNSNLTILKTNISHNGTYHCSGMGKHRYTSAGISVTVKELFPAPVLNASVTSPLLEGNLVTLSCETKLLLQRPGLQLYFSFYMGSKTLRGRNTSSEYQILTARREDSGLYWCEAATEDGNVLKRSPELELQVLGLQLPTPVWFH

Relative FcgRIa-binding Activity	Binder
0.0005 KD(G1d)/KD(variant)	B5
0.0007 KD(G1d)/KD(variant)	B6
0.03 KD(G1d)/KD(variant)	B7
0.0002 KD(G1d)/KD(variant)	B8
0.1 KD(G1d)/KD(variant)	B9
0.0007 KD(G1d)/KD(variant)	B10
0.0004 KD(G1d)/KD(variant)	B11

What follows are binders tested against T7, FcgRIIIaV (human, UniProt P08637 17-208) (assay: SPR (Biacore)).
T7 construct: extracellular domain; also called FcγRIIIa V type
T7 sequence (P08637 17-208 F176V): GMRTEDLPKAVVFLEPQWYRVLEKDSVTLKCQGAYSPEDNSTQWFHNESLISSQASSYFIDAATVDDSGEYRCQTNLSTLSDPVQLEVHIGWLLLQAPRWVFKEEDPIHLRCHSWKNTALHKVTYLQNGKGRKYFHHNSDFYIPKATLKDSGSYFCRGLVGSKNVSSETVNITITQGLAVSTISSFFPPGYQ

Relative FcgRIIIaV-binding Activity	Binder
0.005 KD(G1d)/KD(variant)	B5
0.005 KD(G1d)/KD(variant)	B6
0.007 KD(G1d)/KD(variant)	B7
0.005 KD(G1d)/KD(variant)	B8
0.007 KD(G1d)/KD(variant)	B9
0.008 KD(G1d)/KD(variant)	B10
0.005 KD(G1d)/KD(variant)	B11

The binders below were run against T5, FcgRIIaR (assay: SPR (Biacore)).

Relative FcgRIIaR-binding Activity	Binder
0.051 KD(G1d)/KD(variant)	B5
0.051 KD(G1d)/KD(variant)	B6
0.048 KD(G1d)/KD(variant)	B7
0.025 KD(G1d)/KD(variant)	B8
0.047 KD(G1d)/KD(variant)	B9
0.023 KD(G1d)/KD(variant)	B10
0.041 KD(G1d)/KD(variant)	B11

The binders below were run against T4, FcgRIIb (assay: SPR, amount bound per captured antibody).

Relative FcgRIIb-binding Activity [IL6R-G1d/IL6R-L=100]	Binder
149	B5
141	B6
110	B7
121	B8
164	B9
120	B10
129	B11

The binders below were run against T5, FcgRIIaR (assay: SPR, amount bound per captured antibody).

Relative FcgRIIaR-binding Activity [IL6R-G1d/IL6R-L=100]	Binder
27.5	B5
26.8	B6
26.7	B7
15	B8
29.9	B9
13.8	B10
24.4	B11
